Measured values: paper PMC2114910 (The Journal of Cell Biology, 1987)

Legend:
[1] = molecular target: T1, F-actin from chicken breast muscle (chicken (endogenous in breast muscle), UniProt P68139 1-377); test: cell-based or functional assay
[2] = molecular target: T1, F-actin from chicken breast muscle; test: co-sedimentation

B1: 110-kD protein-calmodulin complex of the intestinal microvillus (complex)
chain 1: MEATTSLLDAAAVGDLVMLDPLSEESLLRTLQERFSRGEIYTYIGEVVISVNPYKPLPIYTPEKVEEYHNCNFFAVKPHIYAIADDAYRSLRDRDRDQCILITGESGAGKTEASKLVMSYVAAVSSKGEEVDKVKEQLLQSNPVLEAFGNAKTIRNDNSSRFGKYMDVEFDFKGDPLGGVISNYLLEKSRIVRHVKGERNFHIFYQLLAGGSAQLLQQLKLRPDCSHYGYLNHEKSVLPGMDDAANFRAMQDAMAIIGFAPAEVTALLEVTAVVLKLGNVKLSSCFQASGMEASSITEPRELQEISQLIGLDPSTLEQALCSRTVKVRDESVLTALSVSQGYYGRDALAKNIYSRLFDWLVNRINTSIQVKPGKQRKVMGVLDIYGFEIFQDNGFEQFIINYCNEKLQQIFILMTLKEEQEEYVREGIQWTPVEFFDNSIICDLIENSKVGILAMLDEECLRPGTVNEDTFITKLNQIFASHKRYESKETLNAKHVTDVSLPLRCFRIHHYAGKVTYNVTGFIEKNNDLLFRDLSQAMWAARHTLLRSLFPEGDPQRPSLKLPPTTGSQFKASVATLMKNLYSKNPNYIRCIKPNDTKTAMLFTPDLVLAQVRYLGLMENVRVRRAGYAFRQLYQPFLERYKMLSRKTWPRWTGGDREGAEVLLAELKFPPEELAYGHTKIFIRSPRTLFDLEKRRQQRVAELATLIQKMFRGWCCRKRYQLMRKSQILISAWFRGHMQRNRYKQMKRSVLLLQAYARGWKTRRMYRRYFRSDACTRLSNFIYRRMVQKYLMGLQKNLPPMAVLDRTWPPAPYKFLSDANQELKSIFYRWKCKKYREQLTPQQRAMLQAKLCASELFKDKKALYAQSLQQPFRGEYLGLTQNRKYQKLQAVAKDKLVMAEAVQKVNRANGKTVPRLLLLTTEHLVLADPKAAQPKMVLSLCDIQGASVSRFSDGLLALHLKETSTAGGKGDLLLVSPHLIELVTRLHQTLMDATAQALPLSIADQFSTRFPKGDVAVTVVESAKGGGDVPVCKKRGSHKMEILVH
chain 2: […]
In the case of B1, the “actin activation of the MgATPase activity of 110K-CM, F-actin 0.1 to 60 uM, 35C” value [1] is reported as 2.5 to 3.5 fold and the “mass ratio of 110K-CM to actin at apparent saturation” value [2] is reported as ~20 110K-CM:actin by mass.
